Common to all, as to assay: IEDB peptide-MHC binding, purified MHC/competitive/radioactivity; filed as Kd, often an IC50 or EC50 that approximates it; ≥ and ≤ were set here for values at or beyond the usual limits of such assays
Assay [1] has as its target HLA-B*18:01.
Assay [2] addresses HLA-B*40:01.
Assay [3] concerns the target HLA-B*40:02.
In assay [4] the target is HLA-B*45:01.
For assay [5], the target named is HLA-B*44:02.
In assay [6] the target is HLA-B*44:03.
Setting [7] is: source organism: SARS coronavirus Tor2.
[8] abbreviates: source organism: Lymphocytic choriomeningitis virus (strain Armstrong).
The mark [9] stands for this setting: source organism: Mammarenavirus machupoense.
The mark [10] stands for this setting: source organism: Mammarenavirus lassaense.

For QELYSPLFLI, the Kd is 4.91 µM in assay [1] (setting [7]); 0.69 µM in assay [2] (setting [7]); 10.7 nM in assay [3] (setting [7]); 45.6 nM in assay [4] (setting [7]); 7.01 nM in assay [5] (setting [7]); 0.00736 µM in assay [6] (setting [7]).

For the sequence AEALGPFQS, the Kd in assay [1] (setting [8]) is at least 77.5 µM; in assay [2] (setting [8]) it was at least 32.1 µM; in assay [3] (setting [8]) it was 4960 nM; in assay [4] (setting [8]), 132 nM; in assay [5] (setting [8]), 1320 nM; in assay [6] (setting [8]) it was 6.97 µM.

Regarding ADMSKLLNL, the Kd in assay [1] (setting [9]) was at least 77.5 µM; in assay [2] (setting [9]) it was 6.25 µM; in assay [3] (setting [9]), 339 nM; in assay [4] (setting [9]), at least 77700 nM; in assay [5] (setting [9]) it was 5440 nM; in assay [6] (setting [9]), at least 51.4 µM.

In the case of REGVFVFNGT, the Kd in assay [1] (setting [7]) is at least 70.5 µM; in assay [2] (setting [7]), 0.677 µM; in assay [3] (setting [7]), 274 nM; in assay [4] (setting [7]), 222 nM; in assay [5] (setting [7]), 1600 nM; in assay [6] (setting [7]), 0.306 µM.

For the sequence GDVELLGTT, the Kd in assay [1] (setting [10]) was at least 77.5 µM; in assay [2] (setting [10]), at least 33.7 µM; in assay [3] (setting [10]), 5920 nM; in assay [4] (setting [10]), 16600 nM; in assay [5] (setting [10]) it was at least 41800 nM; in assay [6] (setting [10]), at least 52.1 µM.

Consider YDFNKLTAL, for which the Kd in assay [1] (setting [10]) was 6.78 µM; in assay [2] (setting [10]) it was 5.34 µM; in assay [3] (setting [10]) it was 19.8 nM; in assay [4] (setting [10]) it was at least 77700 nM; in assay [5] (setting [10]), 2270 nM; in assay [6] (setting [10]) it was 9.17 µM.

Usually Kd stands for the concentration at which binding is half-saturated.
